# Data as given in publication PMC9482650, “Quantitative fragmentomics allow affinity mapping of interactomes” (Nature Communications, 2022).
# T1: LRRC7, Q96NW7
# T1 sequence (Q96NW7 1440-1537, limits assumed, looked up): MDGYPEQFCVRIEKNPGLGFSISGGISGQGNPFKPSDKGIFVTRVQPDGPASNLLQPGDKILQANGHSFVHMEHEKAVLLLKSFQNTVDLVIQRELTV
# T2: SYNJ2BP, P57105
# T2 sequence (P57105 8-110, limits assumed, looked up): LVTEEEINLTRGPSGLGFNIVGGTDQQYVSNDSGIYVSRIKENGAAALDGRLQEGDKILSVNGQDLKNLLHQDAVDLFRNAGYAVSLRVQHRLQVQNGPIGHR
# T3: LIN7C, Q9NUP9
# T3 sequence (Q9NUP9 88-185, limits assumed, looked up): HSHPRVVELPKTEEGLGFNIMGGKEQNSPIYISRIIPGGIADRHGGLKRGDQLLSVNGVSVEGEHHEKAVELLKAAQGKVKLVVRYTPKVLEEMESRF
# T4: DFNB31_1, Q9P202
# T4 sequence (Q9P202 135-233, limits assumed, looked up): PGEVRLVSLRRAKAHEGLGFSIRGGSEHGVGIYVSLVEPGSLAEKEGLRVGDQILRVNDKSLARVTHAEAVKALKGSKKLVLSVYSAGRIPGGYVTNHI
# T5: SHANK1, Q9Y566
# T5 sequence (Q9Y566 658-767, limits assumed, looked up): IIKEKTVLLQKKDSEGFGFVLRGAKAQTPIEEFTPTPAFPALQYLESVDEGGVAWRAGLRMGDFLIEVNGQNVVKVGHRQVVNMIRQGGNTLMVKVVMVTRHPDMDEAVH
# T6: MPDZ_12, O75970
# T6 sequence (O75970 1857-1958, limits assumed, looked up): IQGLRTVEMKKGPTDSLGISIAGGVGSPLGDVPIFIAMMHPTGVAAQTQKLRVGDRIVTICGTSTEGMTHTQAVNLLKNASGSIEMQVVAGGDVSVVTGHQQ
# T7: SNTG2, Q9NY99
# T7 sequence (Q9NY99 68-166, limits assumed, looked up): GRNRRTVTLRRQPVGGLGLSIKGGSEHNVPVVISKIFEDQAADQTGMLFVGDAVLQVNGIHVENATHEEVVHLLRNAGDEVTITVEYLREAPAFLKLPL
# T8: TJP3_3, O95049
# T8 sequence (O95049 375-456, limits assumed, looked up): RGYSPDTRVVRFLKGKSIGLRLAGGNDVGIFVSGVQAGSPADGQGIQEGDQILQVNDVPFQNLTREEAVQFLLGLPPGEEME
# T9: RHPN1, Q8TCX5
# T9 sequence (Q8TCX5 508-602, limits assumed, looked up): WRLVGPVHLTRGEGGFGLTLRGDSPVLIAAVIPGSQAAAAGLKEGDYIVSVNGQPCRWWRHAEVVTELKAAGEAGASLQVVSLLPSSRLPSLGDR
# B1: TIAM1, Q13009 (peptide)
# chain: APSRKLNTEI
# B2: HTR2A, P28223 (peptide)
# chain: DGVNEKVSCV
# B3: CGN, Q9P2M7 (peptide)
# chain: TESNLQTSSC
# B4: KCNV1, Q6PIU1 (peptide)
# chain: RSSGGDDFWF
# How the values were obtained:
# Experiment in all cases: holdup assay
# Design in all cases: key: below the threshold = too weak to quantify, mostly under pKd 3.1 to 4
# FRMPD3, Q5JV73 = target: FRMPD3, Q5JV73
# Chain of FRMPD3, Q5JV73 (Q5JV73 12-100): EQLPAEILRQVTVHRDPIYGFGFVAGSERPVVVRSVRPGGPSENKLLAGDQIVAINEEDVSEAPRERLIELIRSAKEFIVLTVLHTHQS
# MAGI1_1, Q96QZ7 = target: MAGI1_1, Q96QZ7
# Chain of MAGI1_1, Q96QZ7 (Q96QZ7 1-106): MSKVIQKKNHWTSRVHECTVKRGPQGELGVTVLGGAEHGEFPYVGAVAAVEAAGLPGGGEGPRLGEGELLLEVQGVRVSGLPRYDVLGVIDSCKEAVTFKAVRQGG
# FRMPD2_1, Q68DX3 = target: FRMPD2_1, Q68DX3
# Chain of FRMPD2_1, Q68DX3 (Q68DX3 770-861): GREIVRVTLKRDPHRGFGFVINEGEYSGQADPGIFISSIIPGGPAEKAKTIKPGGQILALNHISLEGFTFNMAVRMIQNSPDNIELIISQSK
# LRRC7, Q96NW7 = target: T1, LRRC7, Q96NW7
# SYNJ2BP, P57105 = target: T2, SYNJ2BP, P57105
# LIN7C, Q9NUP9 = target: T3, LIN7C, Q9NUP9
# FRMPD4, Q14CM0 = target: FRMPD4, Q14CM0
# Chain of FRMPD4, Q14CM0 (Q14CM0 67-160): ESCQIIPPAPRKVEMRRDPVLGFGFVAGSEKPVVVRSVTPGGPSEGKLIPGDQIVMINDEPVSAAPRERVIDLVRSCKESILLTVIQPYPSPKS
# IL16_3, Q14005 = target: IL16_3, Q14005
# Chain of IL16_3, Q14005 (Q14005 1107-1207): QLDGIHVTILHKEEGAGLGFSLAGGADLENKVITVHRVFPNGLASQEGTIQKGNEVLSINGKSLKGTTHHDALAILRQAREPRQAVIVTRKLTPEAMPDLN
# HTRA2, O43464 = target: HTRA2, O43464
# Chain of HTRA2, O43464 (O43464 355-458): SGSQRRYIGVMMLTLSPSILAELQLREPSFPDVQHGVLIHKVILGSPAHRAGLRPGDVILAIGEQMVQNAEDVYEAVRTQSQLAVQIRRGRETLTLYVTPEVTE
# Inadl_10, Q8NI35 = target: Inadl_10, Q8NI35
# Chain of Inadl_10, Q8NI35 (Q8NI35 1673-1763): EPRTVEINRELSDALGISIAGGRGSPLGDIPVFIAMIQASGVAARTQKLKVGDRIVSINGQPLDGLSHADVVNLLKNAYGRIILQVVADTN
# TJP2_1, Q9UDY2 = target: TJP2_1, Q9UDY2
# Chain of TJP2_1, Q9UDY2 (Q9UDY2 24-128): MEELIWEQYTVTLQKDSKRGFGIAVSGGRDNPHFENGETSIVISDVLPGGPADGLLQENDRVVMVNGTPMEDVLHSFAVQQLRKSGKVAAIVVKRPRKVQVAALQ
# PICK1, Q9NRD5 = target: PICK1, Q9NRD5
# Chain of PICK1, Q9NRD5 (Q9NRD5 17-115): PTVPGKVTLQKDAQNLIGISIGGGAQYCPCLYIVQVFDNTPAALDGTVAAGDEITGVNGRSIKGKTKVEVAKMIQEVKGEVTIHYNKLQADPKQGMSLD
# DFNB31_1, Q9P202 = target: T4, DFNB31_1, Q9P202
# MAGI3_2, Q5TCQ9 = target: MAGI3_2, Q5TCQ9
# Chain of MAGI3_2, Q5TCQ9 (Q5TCQ9 398-503): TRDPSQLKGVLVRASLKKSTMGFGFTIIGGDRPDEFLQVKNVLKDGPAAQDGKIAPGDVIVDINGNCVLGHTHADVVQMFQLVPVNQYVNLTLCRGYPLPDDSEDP
# NHERF4_1, Q86UT5-2 = target: NHERF4_1, Q86UT5-2
# Chain of NHERF4_1, Q86UT5-2 (Q86UT5 other isoform, or with tags, fused parts or gaps): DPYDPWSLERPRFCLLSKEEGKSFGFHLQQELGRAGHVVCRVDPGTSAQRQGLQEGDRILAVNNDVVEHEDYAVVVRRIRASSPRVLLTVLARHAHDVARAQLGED
# SHANK1, Q9Y566 = target: T5, SHANK1, Q9Y566
# PDZRN4_1, Q6ZMN7 = target: PDZRN4_1, Q6ZMN7
# Chain of PDZRN4_1, Q6ZMN7 (Q6ZMN7 213-318): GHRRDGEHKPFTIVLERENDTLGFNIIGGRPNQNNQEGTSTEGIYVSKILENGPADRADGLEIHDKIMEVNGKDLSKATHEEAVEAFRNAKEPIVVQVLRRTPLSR
# Inadl_5, Q8NI35 = target: Inadl_5, Q8NI35
# Chain of Inadl_5, Q8NI35 (Q8NI35 673-780): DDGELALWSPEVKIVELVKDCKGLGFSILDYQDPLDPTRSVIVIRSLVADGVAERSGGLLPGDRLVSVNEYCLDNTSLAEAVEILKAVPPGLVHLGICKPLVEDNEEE
# MPDZ_12, O75970 = target: T6, MPDZ_12, O75970
# DLG4_2, P78352 = target: DLG4_2, P78352
# Chain of DLG4_2, P78352 (P78352 155-259): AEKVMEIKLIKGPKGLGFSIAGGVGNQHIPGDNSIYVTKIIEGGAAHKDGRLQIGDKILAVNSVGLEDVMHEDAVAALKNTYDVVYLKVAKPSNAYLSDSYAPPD
# SNTG2, Q9NY99 = target: T7, SNTG2, Q9NY99
# SCRIB_2, Q14160 = target: SCRIB_2, Q14160
# Chain of SCRIB_2, Q14160 (Q14160 857-960): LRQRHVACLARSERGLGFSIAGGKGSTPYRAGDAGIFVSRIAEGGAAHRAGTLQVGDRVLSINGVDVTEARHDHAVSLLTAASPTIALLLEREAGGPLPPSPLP
# FRMPD2_3, Q68DX3 = target: FRMPD2_3, Q68DX3
# Chain of FRMPD2_3, Q68DX3 (Q68DX3 1073-1166): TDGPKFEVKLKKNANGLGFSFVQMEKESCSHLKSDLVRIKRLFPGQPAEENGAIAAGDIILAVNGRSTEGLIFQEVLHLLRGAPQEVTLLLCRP
# DLG1_2, Q12959 = target: DLG1_2, Q12959
# Chain of DLG1_2, Q12959 (Q12959 314-412): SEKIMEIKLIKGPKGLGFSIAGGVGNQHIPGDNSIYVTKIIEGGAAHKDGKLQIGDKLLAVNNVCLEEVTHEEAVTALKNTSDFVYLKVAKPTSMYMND
# TJP3_3, O95049 = target: T8, TJP3_3, O95049
# LNX1_1, Q8TBB1 = target: LNX1_1, Q8TBB1
# Chain of LNX1_1, Q8TBB1 (Q8TBB1 261-371): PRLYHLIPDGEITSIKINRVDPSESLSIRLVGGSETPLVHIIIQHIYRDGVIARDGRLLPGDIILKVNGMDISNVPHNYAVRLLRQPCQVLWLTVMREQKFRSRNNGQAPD
# Inadl_8, Q8NI35 = target: Inadl_8, Q8NI35
# Chain of Inadl_8, Q8NI35 (Q8NI35 1425-1530): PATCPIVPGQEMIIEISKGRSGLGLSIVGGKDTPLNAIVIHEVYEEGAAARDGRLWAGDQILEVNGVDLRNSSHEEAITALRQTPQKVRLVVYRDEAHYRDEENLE
# RHPN1, Q8TCX5 = target: T9, RHPN1, Q8TCX5
# [1] = plain residues with an end cap or a label only (N-terminal biotin on a linker: ahx)
# [2] = plain residues with an end cap or a label only (N-terminal biotin on a linker: ado-ado)
binder,measurement,setting,value
B1,pKd,"FRMPD3, Q5JV73; [1]",below the threshold
same,pKd,"MAGI1_1, Q96QZ7; [1]",below the threshold
same,pKd,"FRMPD2_1, Q68DX3; [1]",below the threshold
same,pKd,"LRRC7, Q96NW7; [1]",below the threshold
same,pKd,"SYNJ2BP, P57105; [1]",below the threshold
same,pKd,"LIN7C, Q9NUP9; [1]",below the threshold
same,pKd,"FRMPD4, Q14CM0; [1]",below the threshold
same,pKd,"IL16_3, Q14005; [1]",below the threshold
same,pKd,"HTRA2, O43464; [1]",below the threshold
same,pKd,"Inadl_10, Q8NI35; [1]",below the threshold
same,pKd,"TJP2_1, Q9UDY2; [1]",below the threshold
same,pKd,"PICK1, Q9NRD5; [1]",below the threshold
same,pKd,"DFNB31_1, Q9P202; [1]",3.55
same,pKd,"MAGI3_2, Q5TCQ9; [1]",below the threshold
same,pKd,"NHERF4_1, Q86UT5-2; [1]",below the threshold
same,pKd,"SHANK1, Q9Y566; [1]",below the threshold
same,pKd,"PDZRN4_1, Q6ZMN7; [1]",below the threshold
same,pKd,"Inadl_5, Q8NI35; [1]",below the threshold
same,pKd,"MPDZ_12, O75970; [1]",below the threshold
same,pKd,"DLG4_2, P78352; [1]",3.88
same,pKd,"SNTG2, Q9NY99; [1]",below the threshold
same,pKd,"SCRIB_2, Q14160; [1]",below the threshold
same,pKd,"FRMPD2_3, Q68DX3; [1]",below the threshold
same,pKd,"DLG1_2, Q12959; [1]",3.97
same,pKd,"TJP3_3, O95049; [1]",below the threshold
same,pKd,"LNX1_1, Q8TBB1; [1]",below the threshold
same,pKd,"Inadl_8, Q8NI35; [1]",below the threshold
same,pKd,"RHPN1, Q8TCX5; [1]",3.88
B2,pKd,"FRMPD3, Q5JV73; [2]",below the threshold
same,pKd,"MAGI1_1, Q96QZ7; [2]",below the threshold
same,pKd,"FRMPD2_1, Q68DX3; [2]",below the threshold
same,pKd,"LRRC7, Q96NW7; [2]",below the threshold
same,pKd,"SYNJ2BP, P57105; [2]",4.3
same,pKd,"LIN7C, Q9NUP9; [2]",3.78
same,pKd,"FRMPD4, Q14CM0; [2]",below the threshold
same,pKd,"IL16_3, Q14005; [2]",below the threshold
same,pKd,"HTRA2, O43464; [2]",below the threshold
same,pKd,"Inadl_10, Q8NI35; [2]",below the threshold
same,pKd,"TJP2_1, Q9UDY2; [2]",3.82
same,pKd,"PICK1, Q9NRD5; [2]",below the threshold
same,pKd,"DFNB31_1, Q9P202; [2]",below the threshold
same,pKd,"MAGI3_2, Q5TCQ9; [2]",4.47
same,pKd,"NHERF4_1, Q86UT5-2; [2]",below the threshold
same,pKd,"SHANK1, Q9Y566; [2]",below the threshold
same,pKd,"PDZRN4_1, Q6ZMN7; [2]",below the threshold
same,pKd,"Inadl_5, Q8NI35; [2]",below the threshold
same,pKd,"MPDZ_12, O75970; [2]",below the threshold
same,pKd,"DLG4_2, P78352; [2]",4.74
same,pKd,"SNTG2, Q9NY99; [2]",3.69
same,pKd,"SCRIB_2, Q14160; [2]",3.64
same,pKd,"FRMPD2_3, Q68DX3; [2]",3.53
same,pKd,"DLG1_2, Q12959; [2]",4.82
same,pKd,"TJP3_3, O95049; [2]",below the threshold
same,pKd,"LNX1_1, Q8TBB1; [2]",4.48
same,pKd,"Inadl_8, Q8NI35; [2]",4.81
same,pKd,"RHPN1, Q8TCX5; [2]",4.66
B3,pKd,"FRMPD3, Q5JV73; [1]",below the threshold
same,pKd,"MAGI1_1, Q96QZ7; [1]",below the threshold
same,pKd,"FRMPD2_1, Q68DX3; [1]",below the threshold
same,pKd,"LRRC7, Q96NW7; [1]",below the threshold
same,pKd,"SYNJ2BP, P57105; [1]",below the threshold
same,pKd,"LIN7C, Q9NUP9; [1]",below the threshold
same,pKd,"FRMPD4, Q14CM0; [1]",below the threshold
same,pKd,"IL16_3, Q14005; [1]",3.53
same,pKd,"HTRA2, O43464; [1]",below the threshold
same,pKd,"Inadl_10, Q8NI35; [1]",3.6
same,pKd,"TJP2_1, Q9UDY2; [1]",below the threshold
same,pKd,"PICK1, Q9NRD5; [1]",below the threshold
same,pKd,"DFNB31_1, Q9P202; [1]",below the threshold
same,pKd,"MAGI3_2, Q5TCQ9; [1]",below the threshold
same,pKd,"NHERF4_1, Q86UT5-2; [1]",3.62
same,pKd,"SHANK1, Q9Y566; [1]",below the threshold
same,pKd,"PDZRN4_1, Q6ZMN7; [1]",below the threshold
same,pKd,"Inadl_5, Q8NI35; [1]",below the threshold
same,pKd,"MPDZ_12, O75970; [1]",below the threshold
same,pKd,"DLG4_2, P78352; [1]",below the threshold
same,pKd,"SNTG2, Q9NY99; [1]",below the threshold
same,pKd,"SCRIB_2, Q14160; [1]",below the threshold
same,pKd,"FRMPD2_3, Q68DX3; [1]",below the threshold
same,pKd,"DLG1_2, Q12959; [1]",below the threshold
same,pKd,"TJP3_3, O95049; [1]",below the threshold
same,pKd,"LNX1_1, Q8TBB1; [1]",3.47
same,pKd,"Inadl_8, Q8NI35; [1]",4.18
same,pKd,"RHPN1, Q8TCX5; [1]",4.44
B4,pKd,"FRMPD3, Q5JV73; [2]",4.82
same,pKd,"MAGI1_1, Q96QZ7; [2]",below the threshold
same,pKd,"FRMPD2_1, Q68DX3; [2]",below the threshold
same,pKd,"LRRC7, Q96NW7; [2]",below the threshold
same,pKd,"SYNJ2BP, P57105; [2]",below the threshold
same,pKd,"LIN7C, Q9NUP9; [2]",4.1
same,pKd,"FRMPD4, Q14CM0; [2]",4.67
same,pKd,"IL16_3, Q14005; [2]",below the threshold
same,pKd,"HTRA2, O43464; [2]",below the threshold
same,pKd,"Inadl_10, Q8NI35; [2]",below the threshold
same,pKd,"TJP2_1, Q9UDY2; [2]",below the threshold
same,pKd,"PICK1, Q9NRD5; [2]",4.01
same,pKd,"DFNB31_1, Q9P202; [2]",below the threshold
same,pKd,"MAGI3_2, Q5TCQ9; [2]",below the threshold
same,pKd,"NHERF4_1, Q86UT5-2; [2]",below the threshold
same,pKd,"SHANK1, Q9Y566; [2]",below the threshold
same,pKd,"PDZRN4_1, Q6ZMN7; [2]",below the threshold
same,pKd,"Inadl_5, Q8NI35; [2]",below the threshold
same,pKd,"MPDZ_12, O75970; [2]",below the threshold
same,pKd,"DLG4_2, P78352; [2]",below the threshold
same,pKd,"SNTG2, Q9NY99; [2]",below the threshold
same,pKd,"SCRIB_2, Q14160; [2]",below the threshold
same,pKd,"FRMPD2_3, Q68DX3; [2]",below the threshold
same,pKd,"DLG1_2, Q12959; [2]",3.67
same,pKd,"TJP3_3, O95049; [2]",below the threshold
same,pKd,"LNX1_1, Q8TBB1; [2]",below the threshold
same,pKd,"Inadl_8, Q8NI35; [2]",below the threshold
same,pKd,"RHPN1, Q8TCX5; [2]",below the threshold
